One assay has as its system pSMAD2. The assay can be described thus: Immunofluorescent pSMAD2 positive cells in mammary glands exposed to ligand-secreting fibroblasts. To be noted: basal and luminal compartments. In kind it is in vivo, mouse. The method, then:
FIGS. 4A-4I. LEFTY1 inhibits the phosphorylation of SMAD2 and SMAD5 in basal mammary epithelial cells. FIGS. 4A-4C show exemplary quantification of pSMAD2 and pSMAD5 positive cells within the luminal and basal cells of mammary glands isolated from mice that were injected with control or LEFTY1-secreting L1 fibroblasts. Immunofluorescent detection of pSMAD2 or pSMAD5 proteins was used to visualize positive cells. KRT8 and SMA were used to determine the luminal or basal cells, respectively. […] Immunofluorescent detection of pSMAD2 or pSMAD5 proteins was used to visualize positive cells. KRT8 and SMA were used to determine the luminal or basal cells, respectively. FIGS. 4H-4I show representative images of the quantified sections for pSMAD2 and pSMAD5 analysis (Magnification, 400×). Data are represented as median±S.D. Statistical analysis, Student's T-test, n.s. non-significant; ****p<0.0001.

The test system of a further assay is mammary epithelial cells. The assay can be described thus: 3D organotypic mammary organoid formation. In kind it is cell-based, mouse. The conditions noted are these: Wnt-dependent organoid culture. Here is the method:
FIGS. 8A-8D. Autocrine and paracrine effects of NODAL and LEFTY1 in mammary epithelial cell populations. […] The sorted cells were grown in the 3D organotypic assays to test their organoid formation potential in the presence of NODAL. […] Each dot represents an organoid (n=3). […] Data are represented as median±S.D. Statistical analysis, One-way ANOVA with Dunnet's adjustment, **p<0.01.
FIGS. 9A-9F. Opposing effects of LEFTY1 and BMP7 in mammary organoid formation. […] Data are represented as median±S.D. Statistical analysis, one-way ANOVA with Dunnet's adjustment, *p<0.05; **p<0.01; ***p<0.001.
Since LEFTY1 and BMP7 were able to affect the branching of mammary glands, we hypothesized that the LEFTY1/BMP7 signaling axis may affect the proliferation of mammary epithelial cells. We exposed freshly dissociated mammary epithelial cells to NODAL, LEFTY1, BMP7 and CRIPTO-1 in a modified Wnt-dependent in vitro organoid culture system that was optimized for progenitor cell propagation (Zeng & Nusse, Cell Stem Cell 6, 568-577 (2010) and Jamieson et al., Development 144, 1065-1071 (2017)). In Xenopus, Wnt signaling controls the expression of Nodal and Cripto-1 during gastrulation. Consistent with the evolutionary conservation of the interaction between the Nodal and Wnt pathways (Branford et al., Curr Biol 12, 2136-2141 (2002)), NODAL had no effect on organoid formation in our Wnt-driven culture system (FIG. 8A).
In organoid cultures, the basal cells give rise to mixed phenotype colonies of luminal and basal cells. To prevent the formation of LEFTY1-expressing cells during organoid formation, genetic knockdown of LEFTY1 was done. To knock-down mouse LEFTY1, pSICO-R lentiviral vector was used (Ventura, PNAS, 2004). Different shRNAs were designed and cloned into pSICO-R. The target sequences of the shRNAs cloned were GGACAAGGCTGATGTGGAA (SEQ ID NO: 14) and GCAGGTTCCTGGTGTCAGA (SEQ ID NO: 15). The efficiency of knock-down was tested by transfecting HEK293T cells with pSICO-R-shLEFTY1 constructs with pEGFP-C3-LEFTY1 at 1:4 and 1:20 ratio. Decrease on GFP signal was used to calculate the percentage of inhibition of the shLEFTY sequences. […] (p<0.001 and p<0.01, respectively) (FIGS. 8C-8D and FIGS. 9E-9F).

B1: LEFTY1: left-right determination factor 1, secreted TGF-β superfamily protein; generic LEFTY may mean LEFTY1 or LEFTY2 (protein, UniProt O75610 77-366, looked up)
Left-right determination …: RFSQSFREVAGRFLALEASTHLLVFGMEQRLPPNSELVQAVLRLFQEPVPKAALHRHGRLSPRSARARVTVEWLRVRDDGSNRTSLIDSRLVSVHESGWKAFDVTEAVNFWQQLSRPRQPLLLQVSVQREHLGPLASGAHKLVRFASQGAPAGLGEPQLELHTLDLGDYGAQGDCDPEAPMTEGTRCCRQEMYIDLQGMKWAENWVLEPPGFLAYECVGTCRQPPEALAFKWPFLGPRQCIASETDSLPMIVSIKEGGRTRPQVVSLPNMRVQKCSCASDGALVPRRLQP
As for B1, in the assay on pSMAD2, the pSMAD2 expression result is given as “significant decrease”. Further, the “organoid formation (frequency, number of colonies)” value with mammary epithelial cells is “increased the number of colonies”.

B2: BMP7: bone morphogenetic protein 7, BMPR2 ligand (protein)
chain: STGSKQRSQNRSKTPKNQEALRMANVAENSSSDQRQACKKHELYVSFRDLGWQDWIIAPEGYAAYYCEGECAFPLNSYMNATNHAIVQTLVHFINPETVPKPCCAPTQLNAISVLYFDDSSNVILKKYRNMVVRACGCH
For B2, in the assay with pSMAD2, the pSMAD2 expression entry is “no effect”. In the assay on mammary epithelial cells, the “organoid formation (frequency, number of colonies)” value is given as “significantly decreased” and the organoid size entry is listed as “significantly decreased”.

These data come from patent US12012599B2, “Compositions and methods for modulating left-right differentiation factor (LEFTY) and bone morphogenic factor (BMP)” (CZ Biohub SF LLC, priority 2018, dated 2024).
